Results reported in patent US20220306758A1.

Target: cynomolgus CD3 on mfCD3 engineered Jurkat cells (cynomolgus CD3ε and CD3δ in place of the human versions) (cynomolgus) (UniProt Q95LI5)
Test: flow cytometry on mfCD3 engineered Jurkat cells, median EC50, n=2

REGN5458 (bsAb25441D), anti-BCMA x anti-CD3 bispecific antibody, sequence (VH): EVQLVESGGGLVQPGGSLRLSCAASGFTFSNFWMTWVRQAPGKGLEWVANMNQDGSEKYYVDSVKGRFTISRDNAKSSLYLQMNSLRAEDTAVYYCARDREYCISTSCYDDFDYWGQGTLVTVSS
REGN5458 (bsAb25441D), anti-BCMA x anti-CD3 bispecific antibody, sequence (VH): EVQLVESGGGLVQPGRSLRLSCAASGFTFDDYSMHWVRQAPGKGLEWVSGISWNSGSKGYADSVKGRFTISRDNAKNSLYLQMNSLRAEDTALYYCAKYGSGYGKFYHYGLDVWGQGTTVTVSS
REGN5458 (bsAb25441D), anti-BCMA x anti-CD3 bispecific antibody, sequence (VL): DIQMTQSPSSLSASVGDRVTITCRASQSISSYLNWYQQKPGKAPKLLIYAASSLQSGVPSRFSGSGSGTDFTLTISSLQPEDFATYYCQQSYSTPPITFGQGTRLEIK
cynomolgus CD3 on mfCD3 engineered Jurkat cells (cynomolgus CD3ε and CD3δ in place of the human versions) (cynomolgus), sequence (Q95LI5 22-198, stated change not applied, chain 1 of 2): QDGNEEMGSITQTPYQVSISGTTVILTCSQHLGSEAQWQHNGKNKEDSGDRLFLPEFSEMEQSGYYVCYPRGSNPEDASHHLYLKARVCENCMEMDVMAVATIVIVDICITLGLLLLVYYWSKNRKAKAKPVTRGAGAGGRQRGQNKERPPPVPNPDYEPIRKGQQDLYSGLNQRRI
cynomolgus CD3 on mfCD3 engineered Jurkat cells (cynomolgus CD3ε and CD3δ in place of the human versions) (cynomolgus), sequence (Q95LI8 22-171, stated change not applied, chain 2 of 2, further chain): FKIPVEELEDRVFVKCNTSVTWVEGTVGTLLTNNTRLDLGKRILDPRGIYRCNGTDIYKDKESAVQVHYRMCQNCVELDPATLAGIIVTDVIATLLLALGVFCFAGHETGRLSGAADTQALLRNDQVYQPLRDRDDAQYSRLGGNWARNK

EC50: 15.1 nM
Substance: REGN5458 (bsAb25441D), anti-BCMA x anti-CD3 bispecific antibody
